Source: US20230414590

Target: T1, iron-sulfur cluster assembly (ISCU) protein, Q9H1K1
T1 chain: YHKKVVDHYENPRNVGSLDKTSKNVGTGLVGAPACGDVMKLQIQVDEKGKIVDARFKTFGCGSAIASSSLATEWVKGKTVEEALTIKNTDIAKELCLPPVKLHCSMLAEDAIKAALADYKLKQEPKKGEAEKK

B1: glutathione S-transferase P (GSTP1) (protein)
chain: PPYTVVYFPVRGRCAALRMLLADQGQSWKEEVVTVETWQEGSLKASCLYGQLPKFQDGDLTLYQSNTILRHLGRTLGLYGKDQQEAALVDMVNDGVEDLRCKYISLIYTNYEAGKDDYVKALPGQLKPFETLLSQNQGGKTFIVGDQISFADYNLLDLLLIHEVLAPGCLDAFPLLSAYVGRLSARPKLKAFLASPEYVNLPINGNGKQ
ISCU glutathionylation (α-GSH immunoblot after α-ISCU immunoprecipitation) in PAECs with GSTP1 knockdown: with GSTP1 knockdown, α-ISCU immunoprecipitation revealed a concomitant reduction of GSTP1 pulldown and glutathionylated ISCU in favor of non-glutathionylated ISCU
